Columns and labels:
[1] = system: CC(C)=CCC/C(C)=C/CC/C(C)=C/CO[P@@](=O)(O)OP(=O)(O)O; test: steady-state radiochemical kinetics; format: biochemical, Streptomyces citricolor; conditions: Mg2+ active site
[2] = substrate: CC(C)=CCC/C(C)=C/CC/C(C)=C/CO[P@@](=O)(O)OP(=O)(O)O; test: purified protein; conditions: Mg2+ active site

Work on “germacradien-4-ol synthase (GdolS) (Streptomyces citricolor; D81E)” yielded a Km [1] of 0.82 ± 0.11 µM and a kcat [1] of 0.01 ± 0.0006 s⁻¹.

“germacradien-4-ol synthase (GdolS) (Streptomyces citricolor; D84E)” showed a Km [1] of 0.92 ± 0.09 µM and a kcat [1] of 0.009 ± 0.0003 s⁻¹.

With “germacradien-4-ol synthase (GdolS) (Streptomyces citricolor; E307Q)” the Km [1] was 2.24 ± 0.16 µM and the kcat [1] was 0.013 ± 0.0004 s⁻¹.

“germacradien-4-ol synthase (GdolS) (Streptomyces citricolor; Y303F)” gave a Km [1] of 0.66 ± 0.12 µM and a kcat [1] of 0.014 ± 0.006 s⁻¹.

B1: germacradien-4-ol synthase (GdolS) (Streptomyces citricolor) (protein)
chain: MSDDTSLELPFTHRRNPHQTEAADRHLEWLQRHRELAAVVSGSTYTGWDITELASLVYPESSAEDLALAADLMGFYFLFDDQFDSPLGRRPEQVALICERLSAIAHGTLTAVTSPSERAFADLWRRITLGMTDRWRARAACNWEYYFACHPAEAAGRTIGQPPDREGYLTLRRGTAAMESIFDMIERLGHFEVPQHVMHHPLFRQLRQLAADIPSFTNDVRSFAQESERGDVANLVMIVRRDRCCSTEEACAVVWDEAQRMADRFCDLRDQLPDACRSMSLDPAQRLAAERYADGMALWLAGYLHWESHTRRYHHG
For B1, the Km [2] was 1.07 ± 0.13 µM, the kcat [2] was 0.079 s⁻¹ and the kcat/Km [2] was 73800 M⁻¹ s⁻¹.
